Laboratory results published in patent US12668821B2, “Enzymatic production of glucaric acid from glucuronic acid” (THE GOVERNING COUNCIL OF THE UNIVERSITY OF TORONTO, priority 2019, dated 2026).
Positions count from the first letter of the chain named. Names and notes keep the numbering of the source.

B1: N388S: GOOX variant with N388S relative to SEQ ID NO: 1 (protein, listed as Sarocladium strictum)
chain: NSINACLAAADVEFHEEDSEGWEMDGTAFNLRVDYDPVAIAIPRSTEDIAAAVQCGLDAGVQISAKGGGHSYGSYGFGGEDGHLMLELDRMYRVSVDDDNVATIQGGARLGYTALELLDQGNRALTHGTCPAVGIGGHVLGGGYGFATHTHGLTLDWLVGATVVLADASIVHVSKTENADLFWALRGGGGGFAIVSEFEFNTFEAPEIITTYQVTTTWNRKQHVAGLKALQDWAENTMPRELSMRLEINANALNWEGNYFGNAKDLKKVLQPIMKKAGGKSTISKLVETDWYGQINTYLYGADLNITYNYDVHEYFYANSLTAPRLSDEAISAFVDYKFDNSSVRPGRGWWIQWDFHGGKNSALASHSNDETAYAHRDQLWLWQFYDSIYDYENNTSPYPESGFEFMQGFVATIEDTLPEDRKGKYFNYADTTLDKEEAQKLYWRGNLEKLQAIKAKYDPEDVFGNVVSVEPIA
modifications: (1)..(206) FAD-binding domain; (207)..(474) substrate-binding domain
B2: E314A: GOOX variant with E314A relative to SEQ ID NO: 1 (protein, listed as Sarocladium strictum)
chain: B1 chain with E314A, S388N
modifications: (1)..(206) FAD-binding domain; (207)..(474) substrate-binding domain
B3: Q353N: GOOX variant with Q353N relative to SEQ ID NO: 1 (protein, listed as Sarocladium strictum)
chain: B1 chain with Q353N, S388N
modifications: (1)..(206) FAD-binding domain; (207)..(474) substrate-binding domain
B4: Q353A: GOOX variant with Q353A relative to SEQ ID NO: 1 (protein, listed as Sarocladium strictum)
chain: B1 chain with Q353A, S388N
modifications: (1)..(206) FAD-binding domain; (207)..(474) substrate-binding domain
B5: N388S-V38A: GOOX variant with N388S and V38A relative to SEQ ID NO: 1 (protein, listed as Sarocladium strictum)
chain: B1 chain with V38A
modifications: (1)..(206) FAD-binding domain; (207)..(474) substrate-binding domain
B6: Y72F: GOOX variant with Y72F relative to SEQ ID NO: 1 (protein, listed as Sarocladium strictum)
chain: B1 chain with Y72F, S388N
modifications: (1)..(206) FAD-binding domain; (207)..(474) substrate-binding domain
B7: W351A: GOOX variant with W351A relative to SEQ ID NO: 1 (protein, listed as Sarocladium strictum)
chain: B1 chain with W351A, S388N
modifications: (1)..(206) FAD-binding domain; (207)..(474) substrate-binding domain
B8: Y300N: GOOX variant with Y300N relative to SEQ ID NO: 1 (protein, listed as Sarocladium strictum)
chain: B1 chain with Y300N, S388N
modifications: (1)..(206) FAD-binding domain; (207)..(474) substrate-binding domain
B9: W351F: GOOX variant with W351F relative to SEQ ID NO: 1 (protein, listed as Sarocladium strictum)
chain: B1 chain with W351F, S388N
modifications: (1)..(206) FAD-binding domain; (207)..(474) substrate-binding domain
B10: E247A: GOOX variant with E247A relative to SEQ ID NO: 1 (protein, listed as Sarocladium strictum)
chain: B1 chain with E247A, S388N
modifications: (1)..(206) FAD-binding domain; (207)..(474) substrate-binding domain
B11: Q384A: GOOX variant with Q384A relative to SEQ ID NO: 1 (protein, listed as Sarocladium strictum)
chain: B1 chain with Q384A, S388N
modifications: (1)..(206) FAD-binding domain; (207)..(474) substrate-binding domain
B12: wtGOOX: Wild-type gluco-oligosaccharide oxidase from Sarocladium strictum, SEQ ID NO: 1, with C-terminal myc-tag and 6xHis-tag (protein, listed as Sarocladium strictum)
chain: B1 chain with S388N
modifications: C-terminal myc-tag and 6xHis-tag; (1)..(206) FAD-binding domain; (207)..(474) substrate-binding domain
B13: Y72A: GOOX variant with Y72A relative to SEQ ID NO: 1 (protein, listed as Sarocladium strictum)
chain: B1 chain with Y72A, S388N
modifications: (1)..(206) FAD-binding domain; (207)..(474) substrate-binding domain
B14: Q384N: GOOX variant with Q384N relative to SEQ ID NO: 1 (protein, listed as Sarocladium strictum)
chain: B1 chain with Q384N, S388N
modifications: (1)..(206) FAD-binding domain; (207)..(474) substrate-binding domain

Assay: Activity screening of GOOX variants and glucose oxidase on MeGlcA
Assay type: biochemical
Conditions: enzyme 16 nM, 37° C., 1 mM MeGlcA (FIG. 11 legend; b102 says 10 mM), 100 mM Tris pH 8.0 (GOOX variants) or 50 mM sodium acetate pH 5.0 (GO)
Description: (§1) FIG. 11: Activity screening of GOOX variants and glucose oxidase (GO) on GlcA and MeGlcA substrates. The enzymes (16 nM) were assayed at 37° C. with 10 mM GlcA and 1 mM MeGlcA in 100 mM Tris buffer pH 8.0 (for GOOX variants) or 50 mM sodium acetate pH 5.0 (for GO). The dotted line indicates the activity of GOOX-VN for MeGlcA for ease of comparison. “CtCBM22A-wtGOOX” and “CtCBM22A-Y300A” represent fusion proteins where the C terminus of the xylan-binding protein CtCBM22A (described in Vuong and Master, 2014) is fused to the N terminus GOOX.
(§2) The specific activity of GOOX-Y300A (16 nM) on MeGlcA and GlcA (1 mM) was measured in 50 mM Tris buffer pH 8.0 at 40° C. The amount of methyl glucaric acid was determined by measuring the release of H2O2 using a previously published colorimetric assay (Lin et al., 1991). The kinetics of GOOX-Y300A on these acidic sugars were measured at the same condition, but using up to 60 mM MeGlcA and GlcA and in 0.3 M Tris buffer pH 8.0.

Going from B1 to B2, the “nmol oxidized MeGlcA Mean” value falls from 1.4023 nmol to 1.0403 nmol.

First: B3
Second: B4
The “nmol oxidized MeGlcA Mean” value of the first is lower: 0.4522 nmol for the first, 0.594 nmol for the second.

Compared with B5, B6 is lower in “nmol oxidized MeGlcA Mean” value: 0.9559 nmol for the first, 0.6279 nmol for the second.

Compared with B7, B8 is lower in “nmol oxidized MeGlcA Mean” value: 0.7166 nmol for the first, 0.08201 nmol for the second.

Going from B9 to B10, the “nmol oxidized MeGlcA Mean” value rises from 0.08201 nmol to 0.724 nmol.

Compared with B11, B12 is higher in “nmol oxidized MeGlcA Mean” value: 0.4569 nmol for the first, 0.9032 nmol for the second.

Going from B13 to B14, the “nmol oxidized MeGlcA Mean” value falls from 0.8997 nmol to 0.683 nmol.

Same assay, conditions: screening, compared with wtGOOX

With B1 the “activity with MeGlcA as substrate (in words)” value was “improved activity over wtGOOX”.

Assay: Activity screening of GOOX variants and glucose oxidase on GlcA
Assay type: biochemical
Conditions: enzyme 16 nM, 37° C., 10 mM GlcA (FIG. 11 legend; b102 says 100 mM), 100 mM Tris pH 8.0 (GOOX variants) or 50 mM sodium acetate pH 5.0 (GO)
Description: as §1, §2

Going from B1 to B2, the “nmol oxidized GlcA Mean” value falls from -0.02652 nmol to -0.03292 nmol.

Compared with B3, B4 is lower in “nmol oxidized GlcA Mean” value: 0.09327 nmol for the first, 0.05212 nmol for the second.

Going from B5 to B6, the “nmol oxidized GlcA Mean” value rises from 0.02835 nmol to 0.05395 nmol.

Going from B7 to B8, the “nmol oxidized GlcA Mean” value falls from 0.06492 nmol to -0.03749 nmol.

First: B9
Second: B10
The “nmol oxidized GlcA Mean” value of the first is lower: -0.04298 nmol for the first, 0.05669 nmol for the second.

Going from B11 to B12, the “nmol oxidized GlcA Mean” value falls from -0.00914 nmol to -0.04572 nmol.

Going from B13 to B14, the “nmol oxidized GlcA Mean” value falls from -0.01097 nmol to -0.02195 nmol.

Same assay, conditions: screening, compared with wtGOOX

In the case of B1, the “activity with GlcA as substrate (in words)” value (shortened to “activity with GlcA”) is reported as “improved activity over wtGOOX”.
In the case of B3, the “activity with GlcA” value is reported as “improved activity over wtGOOX”.
In the case of B4, the “activity with GlcA” value is reported as “improved activity over wtGOOX”.
In the case of B6, the “activity with GlcA” value is reported as “improved activity over wtGOOX”.
In the case of B7, the “activity with GlcA” value is reported as “improved activity over wtGOOX”.
In the case of B10, the “activity with GlcA” value is reported as “improved activity over wtGOOX”.
